Test results reported in publication PMC13095208, “Structural mechanisms of pump assembly and drug transport in the AcrAB–TolC efflux system” (eLife, 2026).

Target: the molecule itself
Test: cryo-EM structure

B1: AcrA, periplasmic membrane fusion protein of Escherichia coli (natural protein)
chain: CDDKQAQQGGQQMPAVGVVTVKTEPLQITTELPGRTSAYRIAEVRPQVSGIILKRNFKEGSDIEAGVSLYQIDPATYQATYDSAKGDLAKAQAAANIAQLTVNRYQKLLGTQYISKQEYDQALADAQQANAAVTAAKAAVETARINLAYTKVTSPISGRIGKSNVTEGALVQNGQATALATVQQLDPIYVDVTQSSNDFLRLKQELANGTLKQENGKAKVSLITSDGIKFPQDGTLEFSDVTVDQTTGSITLRAIFPNPDHTLLPGMFVRARLEEGLNPNAILVPQQGVTRTPRGDATVLVVGADDKVETRPIVASQAIGDKWLVTEGLKAGDRVVISGLQKVRPGVQVKAQEVTADNNQQAASGAQPEQSKS
B1 was tested, and the “stoichiometry N” value was 6 protomers.
